Source: patent publication US20030215854, “Detection of DNA-binding proteins” (published 2003)

B1: PO4 Kbfor/KBrev (dsDNA)
DNA 1: AGTTGAGGGGATCCCCAGGAGCGGCTTATCGGTCTATTCAACTCCCCTAGGGG
DNA 2: TCCTGGGGATCCCCTCAACT
modifications: 5' phosphate on Kbfor
B2: PO4 Kbfor/biotinKBrev (dsDNA)
DNA 1: B1 DNA 1
DNA 2: TCCTGGGGATCCCCTCAACT
modifications: 5' phosphate on Kbfor

Key:
NF-kB p50 [1] = target: T1, NF-kB p50 (UniProt P19838 P19838:1-433); assay: bead capture with anti-p50 antibody, Luminex; dose dependent; 10 mM Tris pH 7.5, 50 mM NaCl, 2 mM KCl, 2 mM MgCl2, poly dI-dC, room temperature; settings: tags: Promega E3770; chain copies: 2; duplex with single-stranded 3' tag
T1 sequence (P19838 1-433, one chain of several): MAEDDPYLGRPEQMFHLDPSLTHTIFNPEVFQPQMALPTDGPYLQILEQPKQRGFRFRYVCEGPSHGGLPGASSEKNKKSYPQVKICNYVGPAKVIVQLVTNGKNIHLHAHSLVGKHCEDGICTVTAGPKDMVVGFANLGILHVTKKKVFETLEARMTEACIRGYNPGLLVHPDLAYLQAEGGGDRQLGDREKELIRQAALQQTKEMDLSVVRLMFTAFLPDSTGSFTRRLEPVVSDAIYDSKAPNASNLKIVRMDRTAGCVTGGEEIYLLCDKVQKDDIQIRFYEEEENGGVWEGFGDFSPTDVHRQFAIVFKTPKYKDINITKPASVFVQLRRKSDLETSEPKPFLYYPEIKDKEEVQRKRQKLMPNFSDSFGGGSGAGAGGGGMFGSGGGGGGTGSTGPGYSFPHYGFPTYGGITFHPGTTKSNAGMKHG
Description: P04 Kbfor and KBrev were annealed by first diluting 100 uM oligonucleotide stocks into annealing buffer (40 mM Tris pH 7.5, 100 mM NaCl, and 1 mM EDTA), to give a ratio of 20 nM P04 Kbfor: 1 uM KBrev. 100 ul of the oligonucleotide mix was then heated to 95° C. for 1 minute, and cooled linearly to room temperature over a period of 45 minutes. 1 ul of the annealed mixture containing detection duplexes displaying a single stranded tag sequence was added to 19 ul of transcription factor binding buffer (10 mM tris pH 7.5, 50 mM NaCl, 2 mM KCl, 2 mM MgCl2) containing 250 ng poly dI-dC, and 0.5% bovine serum albumin (fraction V) and incubated with varying amounts of NF-kB P50 protein for 15 minutes at room temperature. 1800 beads suspended in 25 ul of transcription factor binding buffer containing 0.35% BSA was added to appropriate reactions and incubated 30 minutes at room temperature. Following the hybridization of DNA binding protein-detection duplex complexes to bead surfaces, 25 ul of transcription factor binding buffer containing (0.1 ug) of NF-kB P50 specific primary antibody (Santa Cruz Biotechnolgy Cat #SC-114) was added to the detection duplex-sample-bead mix and incubated for 20 minutes at room temperature in the dark while shaking. […] 25 ul of each assay were read using the Luminex 100 instrumentation.

NF-kB p50 [2] = target: T1, NF-kB p50; assay: protection from lambda exonuclease, signal approx 3600 fluorescent units with p50; poly dI-dC; settings: tags: Promega E3770; chain copies: 2; label: 3' biotin on KBrev; duplex with single-stranded 3' tag

| Binder | binding result (NF-kB p50 [1]) | binding result (NF-kB p50 [2]) |
| --- | --- | --- |
| B1 | binds | – |
| B2 | – | binds |
